In patent publication US20220008548A1 one finds attenuation of IL-4R activity beyond the control constructs data, which are given here for one molecule.

The test deals with IL-4R (UniProt P24394). The test can be described thus: cell-based or functional assay.

B1: anti-IL-4R:anti-CD63 conjugate (streptavidin-conjugated anti-IL-4R antibody combined 1:1 with biotinylated anti-CD63 antibody MEM-259) (protein, part only; not given: anti-CD63 antibody MEM-259, part only)
VH: EVQLVESGGGVVQPGRSLRLSCVASGFTFSDYGMHWVRQAPGKGLEWVAVIWYDGSIKYFRDSVKGRFTISRDNSKNTLYLQMNSLRVEDTAHYYCAKESSSWYFYHGLDVWGQGTMVTVSS
VL: EIVMTQSPLSLPVSPGEPASISCRSNQSLLHSNGNNYLAWYLQKPGQSPHLLIYLGSNRASGVPDRFSGSGSGTDFTLKISRVEAGDVGTYFCMQSLQAPPFTFGPGTKVEIKR
modifications: antibody conjugated to streptavidin
The molecule B1 gave an attenuation of IL-4R activity beyond the control constructs of more than 10%.
